# Reference: IntAct's records for PubMed 31515488
# B1: KAT8 regulatory NSL complex subunit 1 (Homo sapiens), Q7Z3B3 (parent)
# chain: MAAMAPALTDAAAEAHHIRFKLAPPSSTLSPGSAENNGNANILIAANGTKRKAIAAEDPSLDFRNNPTKEDLGKLQPLVASYLCSDVTSVPSKESLKLQGVFSKQTVLKSHPLLSQSYELRAELLGRQPVLEFSLENLRTMNTSGQTALPQAPVNGLAKKLTKSSTHSDHDNSTSLNGGKRALTSSALHGGEMGGSESGDLKGGMTNCTLPHRSLDVEHTTLYSNNSTANKSSVNSMEQPALQGSSRLSPGTDSSSNLGGVKLEGKKSPLSSILFSALDSDTRITALLRRQADIESRARRLQKRLQVVQAKQVERHIQHQLGGFLEKTLSKLPNLESLRPRSQLMLTRKAEAALRKAASETTTSEGLSNFLKSNSISEELERFTASGIANLRCSEQAFDSDVTDSSSGGESDIEEEELTRADPEQRHVPLRRRSEWKWAADRAAIVSRWNWLQAHVSDLEYRIRQQTDIYKQIRANKGLIVLGEVPPPEHTTDLFLPLSSEVKTDHGTDKLIESVSQPLENHGAPIIGHISESLSTKSCGALRPVNGVINTLQPVLADHIPGDSSDAEEQLHKKQRLNLVSSSSDGTCVAARTRPVLSCKKRRLVRPNSIVPLSKKVHRNSTIRPGCDVNPSCALCGSGSINTMPPEIHYEAPLLERLSQLDSCVHPVLAFPDDVPTSLHFQSMLKSQWQNKPFDKIKPPKKLSLKHRAPMPGSLPDSARKDRHKLVSSFLTTAKLSHHQTRPDRTHRQHLDDVGAVPMVERVTAPKAERLLNPPPPVHDPNHSKMRLRDHSSERSEVLKHHTDMSSSSYLAATHHPPHSPLVRQLSTSSDSPAPASSSSQVTASTSQQPVRRRRGESSFDINNIVIPMSVAATTRVEKLQYKEILTPSWREVDLQSLKGSPDEENEEIEDLSDAAFAALHAKCEEMERARWLWTTSVPPQRRGSRSYRSSDGRTTPQLGSANPSTPQPASPDVSSSHSLSEYSHGQSPRSPISPELHSAPLTPVARDTPRHLASEDTRCSTPELGLDEQSVQPWERRTFPLAHSPQAECEDQLDAQERAARCTRRTSGSKTGRETEAAPTSPPIVPLKSRHLVAAATAQRPTHR
# B2: Protein LDOC1 (Homo sapiens), O95751 (parent)
# chain: MVDELVLLLHALLMRHRALSIENSQLMEQLRLLVCERASLLRQVRPPSCPVPFPETFNGESSRLPEFIVQTASYMLVNENRFCNDAMKVAFLISLLTGEAEEWVVPYIEMDSPILGDYRAFLDEMKQCFGWDDDEDDDDEEEEDDY
# partner: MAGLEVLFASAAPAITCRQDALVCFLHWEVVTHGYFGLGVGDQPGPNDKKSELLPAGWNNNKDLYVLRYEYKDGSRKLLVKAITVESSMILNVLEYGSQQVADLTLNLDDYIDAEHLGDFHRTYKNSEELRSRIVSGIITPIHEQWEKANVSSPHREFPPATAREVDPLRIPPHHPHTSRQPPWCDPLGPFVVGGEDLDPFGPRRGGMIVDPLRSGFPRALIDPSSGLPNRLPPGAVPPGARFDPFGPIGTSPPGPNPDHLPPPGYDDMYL
# B3: DNA repair and recombination protein RAD54B (Homo sapiens), Q9Y620 (parent)
# chain: MRRSAAPSQLQGNSFKKPKFIPPGRSNPGLNEEITKLNPDIKLFEGVAINNTFLPSQNDLRICSLNLPSEESTREINNRDNCSGKYCFEAPTLATLDPPHTVHSAPKEVAVSKEQEEKSDSLVKYFSVVWCKPSKKKHKKWEGDAVLIVKGKSFILKNLEGKDIGRGIGYKFKELEKIEEGQTLMICGKEIEVMGVISPDDFSSGRCFQLGGGSTAISHSSQVARKCFSNPFKSVCKPSSKENRQNDFQNCKPRHDPYTPNSLVMPRPDKNHQWVFNKNCFPLVDVVIDPYLVYHLRPHQKEGIIFLYECVMGMRMNGRCGAILADEMGLGKTLQCISLIWTLQCQGPYGGKPVIKKTLIVTPGSLVNNWKKEFQKWLGSERIKIFTVDQDHKVEEFIKSIFYSVLIISYEMLLRSLDQIKNIKFDLLICDEGHRLKNSAIKTTTALISLSCEKRIILTGTPIQNDLQEFFALIDFVNPGILGSLSSYRKIYEEPIILSREPSASEEEKELGERRAAELTCLTGLFILRRTQEIINKYLPPKIENVVFCRPGALQIELYRKLLNSQVVRFCLQGLLENSPHLICIGALKKLCNHPCLLFNSIKEKECSSTCDKNEEKSLYKGLLSVFPADYNPLLFTEKESGKLQVLSKLLAVIHELRPTEKVVLVSNYTQTLNILQEVCKRHGYAYTRLDGQTPISQRQQIVDGFNSQHSSFFIFLLSSKAGGVGLNLIGGSHLILYDIDWNPATDIQAMSRVWRDGQKYPVHIYRLLTTGTIEEKIYQRQISKQGLCGAVVDLTKTSEHIQFSVEELKNLFTLHESSDCVTHDLLDCECTGEEVHTGDSLEKFIVSRDCQLGPHHQKSNSLKPLSMSQLKQWKHFSGDHLNLTDPFLERITENVSFIFQNITTQATGT
# partner: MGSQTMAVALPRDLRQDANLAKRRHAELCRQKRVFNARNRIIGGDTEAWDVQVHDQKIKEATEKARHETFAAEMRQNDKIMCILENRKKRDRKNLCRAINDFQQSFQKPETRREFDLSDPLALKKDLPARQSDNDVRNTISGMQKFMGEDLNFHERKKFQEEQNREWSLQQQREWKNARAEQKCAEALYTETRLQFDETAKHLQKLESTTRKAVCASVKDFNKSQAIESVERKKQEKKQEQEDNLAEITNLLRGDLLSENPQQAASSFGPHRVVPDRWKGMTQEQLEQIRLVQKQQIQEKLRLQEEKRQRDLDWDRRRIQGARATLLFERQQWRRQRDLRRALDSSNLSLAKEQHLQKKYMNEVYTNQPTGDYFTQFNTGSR
# Variants of: B1
# Conditions: with cdr2_human CDR2, Q01850
# cdr2_human CDR2, Q01850, sequence (Q01850 whole entry): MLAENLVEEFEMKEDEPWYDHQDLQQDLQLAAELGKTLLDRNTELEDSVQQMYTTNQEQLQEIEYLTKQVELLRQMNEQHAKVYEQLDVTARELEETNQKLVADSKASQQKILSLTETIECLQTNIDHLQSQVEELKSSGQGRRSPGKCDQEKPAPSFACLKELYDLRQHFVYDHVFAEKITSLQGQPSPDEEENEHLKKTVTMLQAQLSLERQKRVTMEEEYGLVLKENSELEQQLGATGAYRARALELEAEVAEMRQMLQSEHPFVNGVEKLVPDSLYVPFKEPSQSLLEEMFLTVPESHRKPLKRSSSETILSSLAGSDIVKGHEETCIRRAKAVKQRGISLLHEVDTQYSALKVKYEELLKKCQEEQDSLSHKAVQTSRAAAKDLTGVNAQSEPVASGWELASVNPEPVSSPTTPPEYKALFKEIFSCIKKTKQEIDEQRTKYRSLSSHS
row,effect of a mutation on the interaction,Variant
1,with no effect,N225D

# Variants of: B1
# Conditions: with traf2_human TRAF2, Q12933
# traf2_human TRAF2, Q12933, sequence (Q12933 whole entry): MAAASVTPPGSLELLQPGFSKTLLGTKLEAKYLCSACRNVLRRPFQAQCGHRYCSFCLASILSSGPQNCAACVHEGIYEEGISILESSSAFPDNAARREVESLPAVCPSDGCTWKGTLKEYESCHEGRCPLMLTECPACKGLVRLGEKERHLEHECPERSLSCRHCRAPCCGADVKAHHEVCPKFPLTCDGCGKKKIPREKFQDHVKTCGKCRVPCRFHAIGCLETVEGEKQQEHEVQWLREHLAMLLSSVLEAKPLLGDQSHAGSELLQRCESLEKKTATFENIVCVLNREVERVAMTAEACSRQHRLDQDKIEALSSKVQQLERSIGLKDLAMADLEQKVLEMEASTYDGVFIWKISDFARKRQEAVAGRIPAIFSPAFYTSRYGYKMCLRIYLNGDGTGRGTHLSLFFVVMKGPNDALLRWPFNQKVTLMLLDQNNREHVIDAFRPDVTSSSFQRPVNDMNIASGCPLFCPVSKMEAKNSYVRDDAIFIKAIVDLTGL
row,effect of a mutation on the interaction,Variant
1,with no effect,N225D

# Variants of: B1
# Conditions: with KRT15, P19012
# KRT15, P19012, sequence (P19012 whole entry): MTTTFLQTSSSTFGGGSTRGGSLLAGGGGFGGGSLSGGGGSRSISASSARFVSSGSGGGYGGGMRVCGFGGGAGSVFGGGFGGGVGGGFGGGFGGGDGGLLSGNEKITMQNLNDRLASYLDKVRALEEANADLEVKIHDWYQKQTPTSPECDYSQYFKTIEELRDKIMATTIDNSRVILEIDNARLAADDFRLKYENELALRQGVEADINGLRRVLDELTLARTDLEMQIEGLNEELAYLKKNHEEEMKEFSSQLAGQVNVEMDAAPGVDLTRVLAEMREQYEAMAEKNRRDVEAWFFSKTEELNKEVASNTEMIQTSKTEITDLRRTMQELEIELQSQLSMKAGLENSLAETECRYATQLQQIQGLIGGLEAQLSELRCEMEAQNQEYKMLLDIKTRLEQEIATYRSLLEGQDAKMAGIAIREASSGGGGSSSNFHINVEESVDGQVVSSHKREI
row,effect of a mutation on the interaction,Variant
1,with no effect,N225D

# Variants of: B2
# Conditions: with psmf1_human PSMF1, Q92530
row,effect of a mutation on the interaction,Variant
1,disrupting interaction strength,L12H

# Variants of: B3
# Conditions: with ribc2_human RIBC2, Q9H4K1
row,effect of a mutation on the interaction,Variant
1,with no effect,L30V
